Positions count from the first letter of the chain named.

Usually koff stands for the rate constant with which the complex falls apart.

First the molecules themselves.
B1: 7E8H/9B3K (antibody, human IgG1, kappa, V domains shown)
VH: EVQLVETGGGLVQPGRSLKLSCKTSGFTFSSYWMYWIRQAPGKGLEWVSSITPNGGNTYYPDSVKGRFTISRDNAENTIYLQMSSLRSEDTATYFCAKGHYYYTSYSLGYWGQGSLVTVSS
VL: DIQMTQSPSVLSASVGDRVTLSCKASHNINKHLDWYQQKVGEAPKLLIYFTNNLQTGIPSRFSGSGSGTDYTLTISSLQPEDVATYFCFQYNSGWTFGQGTKVEIKR
B2: 9B3-563 (antibody, human IgG1, kappa, V domains shown)
VH: EVQLVETGGGLVQPGRSLKLSCVASGFTFSNYWMYWIRQAPGMGLEWVSSINNDGGNTYYLDSVKGRFTISRNNAENTVYLQMNSLRSEDTATYYCAKGHYYYSSYSFAYWGQGTLVTVSS
VL: B1 VL
B3: 9B3-31v2 (antibody, human IgG1, kappa, V domains shown)
VH: B2 VH with Y110F
VL: B1 VL
B4: 9B3-15 (antibody, human IgG1, kappa, V domains shown)
VH: B2 VH with Y102S, Y110N
VL: B1 VL
B5: 9B3-79 (antibody, human IgG1, kappa, V domains shown)
VH: B2 VH with K98R, S104T
VL: B1 VL
B6: 9B3-13 (antibody, human IgG1, kappa, V domains shown)
VH: B2 VH with K98R, S104N, Y110H
VL: B1 VL
B7: 9B3-5 (antibody, human IgG1, kappa, V domains shown)
VH: B2 VH with Y102S, S104T, A109G
VL: B1 VL
B8: 9B3-7 (antibody, human IgG1, kappa, V domains shown)
VH: B2 VH with H100R
VL: B1 VL
B9: 9B3-1 (antibody, human IgG1, kappa, V domains shown)
VH: B2 VH with F108L, A109G
VL: B1 VL
B10: 9B3-2A (antibody, human IgG1, kappa, V domains shown)
VH: B2 VH with Y102S, A109G
VL: B1 VL
B11: 9B3-3 (antibody, human IgG1, kappa, V domains shown)
VH: B2 VH with Y102S, F108I, A109D
VL: B1 VL
B12: 9B3-162 (antibody, human IgG1, kappa, V domains shown)
VH: B2 VH with A109G
VL: B1 VL
B13: 9B3-2B (antibody, human IgG1, kappa, V domains shown)
VH: B2 VH with A97V, Y102S, F108I, A109D
VL: B1 VL
B14: 9B3-36 (antibody, human IgG1, kappa, V domains shown)
VH: B2 VH with S104T
VL: B1 VL
B15: IL33-57 (antibody, human IgG1, kappa, V domains shown)
VH: EVQLVESGGGLVQPGGSLRLSCAASGFTFSSYWMYWVRQAPGKGLEWVASITPNGGNTYYPDSVKGRFTISRDNAKNSLYLQMNSLRAEDTAVYYCARGHYYYTDYSLGYWGQGTLVTVSS
VL: DIQMTQSPSSLSASVGDRVTITCKASQNINKHLDWYQQKPGKAPKLLIYFTNNLQTGVPSRFSGSGSGTDFTLTISSLQPEDFATYYCFQYNNGWTFGGGTKVEIKR
B16: IL33-58 (antibody, human IgG1, kappa, V domains shown)
VH: B15 VH with N54L, D105S
VL: B15 VL
B17: IL33-81 (antibody, human IgG1, kappa, V domains shown)
VH: B15 VH with D105S
VL: B15 VL with T56E
B18: IL33-75 (antibody, human IgG1, kappa, V domains shown)
VH: B15 VH with D105S
VL: B15 VL with N30D
B19: IL33-74 (antibody, human IgG1, kappa, V domains shown)
VH: B15 VH with D105S
VL: B15 VL with K31D
B20: IL33-61 (antibody, human IgG1, kappa, V domains shown)
VH: B15 VH with N57E
VL: B15 VL
B21: IL33-80 (antibody, human IgG1, kappa, V domains shown)
VH: B15 VH with D105S
VL: B15 VL with T56D
B22: IL33-62 (antibody, human IgG1, kappa, V domains shown)
VH: B15 VH with N57D
VL: B15 VL
B23: 7E8 chimera (antibody, human IgG1, kappa, V domains shown)
VH: B1 VH
VL: EIQMTQSPSVLSASVGDRVTLSCKASQNINKHLDWYQQKLGEAPKLLIYFTNNLQTGIPSRFSGSGSGTDCTLTINSLQPGDVATYFCFQYNNGWTFGGGTKLELDR
B24: 30A1 chimera (antibody, human IgG1, kappa)
heavy: QVNLLQSGATLVKPGASMKMSCKASGYSFTDYWVSWVKQSHGKSLEWIGEIYPNSGANNFNKEFKDKATLTVDKSTSTAYMELTRLTSEDSAVYYCTRGPYYYSSQIIFAYWGQGTLVTVSSASTKGPSVFPLAPSSKSTSGGTAALGCLVKDYFPEPVTVSWNSGALTSGVHTFPAVLQSSGLYSLSSVVTVPSSSLGTQTYICNVNHKPSNTKVDKKVEPKSCDKTHTCPPCPAPEAAGAPSVFLFPPKPKDTLMISRTPEVTCVVVDVSHEDPEVKFNWYVDGVEVHNAKTKPREEQYNSTYRVVSVLTVLHQDWLNGKEYKCKVSNKALPAPIEKTISKAKGQPREPQVYTLPPSREEMTKNQVSLTCLVKGFYPSDIAVEWESNGQPENNYKTTPPVLDSDGSFFLYSKLTVDKSRWQQGNVFSCSVMHEALHNHYTQKSLSLSPGK
light: IIVMTQSPKSMSISVGDRVTMNCKASQNVGNNIAWYRQKPGQSPELLIYYASNRYTGVPDRFTGGGYGTDFTLTINSVQAEDAAFYYCQRIYNSPPTFGGGTKVELKRTVAAPSVFIFPPSDEQLKSGTASVVCLLNNFYPREAKVQWKVDNALQSGNSQESVTEQDSKDSTYSLSSTLTLSKADYEKHKVYACEVTHQGLSSPVTKSFNRGEC
B25: IL33-187 (antibody, human IgG1, kappa, V domains shown)
VH: B15 VH with S50A, G55A, N57E, D105S
VL: B15 VL with N93Q
B26: IL33-188 (antibody, human IgG1, kappa, V domains shown)
VH: B15 VH with S50A, G55A, N57E, D62E, D105S
VL: B15 VL with N93Q

In one assay the target is T1, human IL-33 (mm2) (human, UniProt O95760 112-270).
T1 construct: Variant in which all four cysteine residues are serine; the entry carries an N-terminal Met and a C-terminal His6; Biotinylated in some assays; also called hIL-33 (mm2); huIL-33 (mm2)
T1 chain: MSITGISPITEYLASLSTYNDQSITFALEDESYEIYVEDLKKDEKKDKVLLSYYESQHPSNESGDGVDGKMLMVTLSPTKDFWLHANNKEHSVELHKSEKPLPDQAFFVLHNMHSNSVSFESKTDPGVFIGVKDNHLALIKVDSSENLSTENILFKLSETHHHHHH
Nature of the assay: BIAcore, IgG captured by anti-human Fc, 125 nM IL-33 (mm2). Here is the method: Binding to human and cynomolgus monkey IL-33 was measured by surface plasmon resonance using a BIAcore T200 instrument. An anti-human Fc antibody was immobilized on a CM5 chip, and anti-IL-33 antibodies were captured.
(In general: In SPR one partner is held on a chip, and binding of the other changes the refractive index at the surface.)
B1 yielded a koff of 0.000385 s⁻¹. Molecule B2 showed a koff of 0.00109 s⁻¹. On the same count and under the same terms, then B3, with 0.000706 s⁻¹; and B4, with 0.000479 s⁻¹. Take B5: the off-rate constant (koff) amounted to 0.000543 s⁻¹. Molecule B6 gave a koff of 0.000326 s⁻¹. On the same count and under the same terms, then B7, with 0.000325 s⁻¹; and B8, with 0.000589 s⁻¹. For the molecule B9, the koff was determined as 0.000569 s⁻¹. The same measure, in the same setting: then B10, with 0.000437 s⁻¹; and B11, with 0.000424 s⁻¹. Take B12: the dissociation rate constant (koff) is 0.000642 s⁻¹. Molecule B13 showed a koff of 0.000506 s⁻¹.

Consider B14, for which the koff amounted to 0.000289 s⁻¹.

A further assay has as its target T1, human IL-33 (mm2). The assay is described as follows: cell-based or functional assay.
Consider B1, for which the “estimated IC50, HEK293 ST2 NFkB” value was 0.015 nM.

B2: the “estimated IC50, HEK293 ST2 NFkB” value is 0.177 nM. B3: the “estimated IC50, HEK293 ST2 NFkB” value is 0.202 nM. Consider B4, for which the “estimated IC50, HEK293 ST2 NFkB” value was 0.101 nM. The same measure, in the same setting: with B5 the figure was 0.063 nM; with B6, 0.175 nM; with B7, 0.106 nM.

Turning to B8, the “estimated IC50, HEK293 ST2 NFkB” value is 0.069 nM. With B9, the “estimated IC50, HEK293 ST2 NFkB” value was 0.039 nM. As for B10, the “estimated IC50, HEK293 ST2 NFkB” value was 0.056 nM. As for B11, the “estimated IC50, HEK293 ST2 NFkB” value was 0.048 nM. As for B12, the “estimated IC50, HEK293 ST2 NFkB” value was 0.067 nM. For the molecule B13, the “estimated IC50, HEK293 ST2 NFkB” value is 0.048 nM.

In the case of B14, the “estimated IC50, HEK293 ST2 NFkB” value is 0.251 nM.

The target in another assay is T1, human IL-33 (mm2). The assay is described as follows: cell-based or functional assay. This is another data set of the same source.
In the case of B15, the “IC50, HEK293 ST2 NFkB” value came out at 0.31 nM. With B16, the “IC50, HEK293 ST2 NFkB” value stood at 0.027 nM.

As to B17, the “IC50, HEK293 ST2 NFkB” value was determined as 0.168 nM. In the case of B18, the “IC50, HEK293 ST2 NFkB” value is 0.156 nM.

As to B19, the “IC50, HEK293 ST2 NFkB” value was found to be 0.174 nM. Turning to B20, the “IC50, HEK293 ST2 NFkB” value worked out at 0.595 nM. For B21, the “IC50, HEK293 ST2 NFkB” value worked out at 0.161 nM. B22: the “IC50, HEK293 ST2 NFkB” value stood at 0.885 nM.

Another assay has as its target T1, human IL-33 (mm2). The assay is described as follows: cell-based or functional assay. This is another data set of the same source.
Turning to B23, the “IC50, HEK293 ST2 NFkB” value was 0.049 nM. On to B24, for which the “IC50, HEK293 ST2 NFkB” value stood at 0.27 nM.

The target of another assay is T2, cynomolgus monkey IL-33 (cys mut) (cynomolgus monkey).
T2 chain: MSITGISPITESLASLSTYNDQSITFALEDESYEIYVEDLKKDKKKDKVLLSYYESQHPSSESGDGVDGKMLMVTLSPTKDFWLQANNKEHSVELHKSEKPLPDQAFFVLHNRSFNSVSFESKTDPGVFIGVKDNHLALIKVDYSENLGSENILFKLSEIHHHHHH
The assay is described as follows: cell-based or functional assay.
In the case of B25, the “IC50, HEK293 ST2 NFkB cyno IL-33” value is 0.282 nM. Take B26: the “IC50, HEK293 ST2 NFkB cyno IL-33” value stood at 0.351 nM.

For a further assay, the target named is T1, human IL-33 (mm2). Nature of the assay: cell-based or functional assay. This is another data set of the same source.
As for B25, the “IC50, HEK293 ST2 NFkB” value was found to be 0.15 nM and the “IC50, whole blood mm2” value was found to be 0.006 nM.

Take B26: the “IC50, HEK293 ST2 NFkB” value stood at 0.147 nM and the “IC50, whole blood mm2” value is 0.017 nM.
